Settings: CD, whole UniProt chain shown; for denaturant m value / denaturant midpoint (higher = more stable): Aspergillus oryzae (strain ATCC 42149 / RIB 40), 25 °C, Urea
[1] = Kitasatospora aureofaciens, pH 7, Thermal, MOPS 30 mM

B1: Guanyl-specific ribonuclease T1 wild type, P00651 (protein)
chain: MMYSKLLTLTTLLLPTALALPSLVERACDYTCGSNCYSSSDVSTAQAAGYQLHEDGETVGSNSYPHKYNNYEGFDFSVSSPYYEWPILSSGDVYSGGSPGADRVVFNENNQLAGVITHTGASGNNFVECT
- denaturant m value (pH 2.5, glycine 30 mM): 1.59 kcal/mol/M
- denaturant midpoint (higher = more stable) (pH 2.5, glycine 30 mM): 3.66 M
- denaturant m value (pH 7, MOPS 30 mM): 1.23 kcal/mol/M
- denaturant midpoint (higher = more stable) (pH 7, MOPS 30 mM): 5.23 M

B2: Guanyl-specific ribonuclease Sa wild type, P05798 (protein)
chain: DVSGTVCLSALPPEATDTLNLIASDGPFPYSQDGVVFQNRESVLPTQSYGYYHEYTVITPGARTRGTRRIITGEATQEDYYTGDHYATFSLIDQTC
- Tm [1]: 47.2 °C
- unfolding enthalpy (van 't Hoff) [1]: 91 kcal/mol
